Consider one molecule from paper PMC7108782, “Direct interaction of metastasis-inducing S100P protein with tubulin causes enhanced cell migration without changes in cell adhesion” (Biochemical Journal, 2020).

For assay [1], the system named is COS-7 S10 cells. The assay is described as follows: Cell adhesion assays, COS-7 S10. The format is cell-based, monkey. As to the method:
For kinetics of attachment either HeLa-A3 or COS-7 S10 cells were induced with 1 µg/ml doxycycline 48 h prior to experiment and 2 × 10^5 uninduced or induced cells in 1 ml were added to 24 well tissue culture dishes and allowed to adhere at 37°C. At the given time (30 min to 2 h) cells were washed 2× with PBS and detached with 250 µl 0.05% (w/v) trypsin in versene for 5 min at 37°C, neutralised in serum-containing media (SCM), counted and the percent of seeded cells recorded. For strength of adhesion, the same cells were seeded in 24 well tissue culture dishes so as to yield 80% confluence in 24 h. In all cases identical dishes were set up for test and control. After 24 h, wells were washed 2× and detached with 250 µl, 0.0125% (w/v) trypsin in versene for 5 min at 37°C. Wells were then carefully washed 2× to remove weak binders. Trypsin in versene (250 µl of 0.05% (w/v)) was then added to both test dish and control dish for 5 min to remove all cells from the well, neutralised with SCM and counted. The proportion of cells remaining after the weak digestion step was determined from the ratio of results from test and control plates. All assays were performed in triplicate.

Assay [2] concerns α and β-tubulin subunits and half molecules. The assay is described as follows: Gel overlay assay. The note with it: 3 µg/ml S100P, 1 μM proteins, 4°C overnight. Format: binding, human. As to the method: The coding sequences for full length (human) α-tubulin and for N-terminal and C-terminal halves of α or β-tubulin were generated using PCR with specific primers shown in Supplementary Table S1 and sub-cloned into pET16(b) for expressing and purifying His-tagged full-length α-tubulin and His-tagged tubulin fragments in E. coli, as described previously. β-tubulin was purchased from Abcam.
Equal molar proteins (1 μM) were subjected to SDS PAGE on 10% (w/v) polyacrylamide gels. One gel was stained with Coomassie Blue to check equal loading and the other electroblotted onto PVDF membrane. Three µg/ml S100P in Gel Overlay Buffer were added to the membrane and the contents incubated at 4°C overnight. After extensive washing, the presence of bound S100P was probed with mouse anti-S100P as described for Western blotting.

The next assay has as its system α, β-tubulins. The experiment in a line: Pulldown assay, His-S100P beads with COS-7 cell lysates. Format: binding, monkey. The note with it: 1 mM CaCl2 vs EGTA. On the procedure: […] After brief sonication, the lysates were centrifuged at 15,000g for 30 min to remove insoluble components. The supernatants were then applied to His-S100P columns or control column with His-binding beads only. After extensive washings with 10 mM Tris–HCl, pH 7.4, 150 mM NaCl, 0.5% (v/v) Tween 20, the bound proteins were eluted with 300 mM imidazole and then subjected to Western blotting using mouse anti-S100P mAb and anti-tubulin antibodies (R&D Systems, Abingdon, U.K.).

For assay [3], the system named is nonmuscle myosin (NM) isoforms. The note with it: ref [10]; cited from earlier work. An excerpt: Overexpression of S100P promotes breast cancer metastasis in animals and elevated levels in primary breast cancers are associated with poor patient outcomes.
The next assay relates to Rama 37-T25 cells. The experiment in a line: S100P-enhanced cell migration, Rama 37-T25. The format is cell-based, rat. The note with it: Rama 37-T25, doxycycline 1 µg/ml, 24 h. An excerpt:
Cell migration rate (%) = M/G × 100.

The test system of another assay is COS-7 cells. The assay is described as follows: Living colour expression: YFP-S100P with CFP-EB3. Format: cell-based, monkey. The note with it: high YFP-S100P, 24 h. On the procedure:
S100P fused to yellow fluorescent protein (YFP), and EB3 fused to cyan fluorescent protein (CFP) (EB3-CFP) expression plasmids, pYFP-S100P and pCFP-EB3 were constructed, respectively. COS-7 cells were transiently transfected with the two plasmids and images were recorded using a LSM 5 confocal microscope 24 h after transfection. CFP: excitation = 436 nm, emission = 480 nm; YFP: excitation = 500 nm, emission = 520 nm.

Assay [4] has as its system COS-7 S10 cells. The experiment in a line: Immunofluorescence of MTOC and EB3 bundles. The note with it: COS-7 S10, S100P induced. Format: cell-based, monkey. As to the method: Immunofluorescent staining was carried out as previously described. COS-7 S10 and MCF-7 cells were induced for 48 h prior to plating at 25,000 cells/well onto either untreated or fibronectin-coated (2.5 µg/cm^2) glass coverslips in a 24-well plate. After a further 48 h, cells were washed once in Cytoskeleton Buffer (CB: 150 mM NaCl, 5 mM MgC1_2, 5 mM EGTA, 5 mM glucose, 10 mM 2-(N-morpholino) ethanesulfonic acid, pH 6.1) prior to fixing with 3.7% (w/v) paraformaldehyde in CB at 37°C for 20 min. Cells were permeabilised with 1% (v/v) Triton X-100 in CB for 2 min and blocked with 5% (v/v) goat serum in CB for 60 min before incubation with rabbit anti-EB3 (Abcam ab157217) and mouse anti-α-tubulin (Sigma T5168) (dilution between 1/400 and 1/500) in 1% (v/v) goat serum in CB for 60 min at room temperature. […] Quantification of the presence of EB3 clusters at the cell periphery or well-defined MTOC was performed by counting the number per cell in about 100 cells selected at random. […] For MTOC quantification, cells and MTOC were graded as shown in Figure 4C′ where organisation is defined as (1) not visible or poorly structured organisation; (2) visible but poorly formed; (3) visible and defined; and (4) well defined and extensive regions. […]

B1: S100P: recombinant or doxycycline-induced overexpressed S100P protein (protein)
chain: MTELETAMGMIIDVFSRYSGSEGSTQTLTKGELKVLMEKELPGFLQSGKDKDAVDKLLKDLDANGDAQVDFSEFIVFVAAITSACHKYFEKAGLK
On to B1, for which the “change in rate and strength of adhesion (in words)” value in the assay on COS-7 S10 cells [1] (COS-7 S10, 1 µg/ml doxycycline, P ≥ 0.18) is reported as “no significant decrease in the rate of adhesion (Supplementary Figure S1) or significant decrease in strength of adhesion”. Besides, the “change in strength of adhesion (in words)” value in the assay with COS-7 S10 cells [1] (COS-7 S10, S100P induced vs uninduced, n = 3) is “significant change in the strength of adhesion upon induction of S100P (t = 0.6, P = 0.95, n = 3)”. The “binding of S100P to tubulin subunits and half molecules” value in assay [2] is “interacted with both α and β-tubulin subunits and with all four half molecules”. The “α, β-tubulins captured by His-S100P” value in the assay with α, β-tubulins is given as “detected in eluates, but only when 1 mM CaCl2 but not EGTA was originally present”. For the same molecule, the “order of interaction with NM isoforms” value in assay [3] is “IIA > IIC > IIB”. Further, the S100P-enhanced cell migration with Rama 37-T25 cells is given as 3–4 folds. The “distribution of peripheral MTs” value in the assay with COS-7 cells was “more dispersed distribution of cyan-labelled peripheral MTs”. Besides, in the assay on COS-7 S10 cells [4], the “reduction in percentage of cells with EB3 bundles at periphery” value was found to be 52% and the “reduction in percentage of well-defined MTOCs per cell” value is 31%.
